Assay results published in publication PMC8464984, “AimR Adopts Preexisting Dimer Conformations for Specific Target Recognition in Lysis-Lysogeny Decisions of Bacillus Phage phi3T” (Biomolecules, 2021).
Changes are numbered by the printed parent chain.

Key:
[1] = molecular target: spAimR; conditions: cited from earlier work
[2] = molecular target: T1, phAimR dimer (N103C-labelled) (Bacillus phage phi3T, UniProt P0DOE3, C136S/C223S/C267S/C6S/C74S/C99S/N103C); test: smFRET titration of phAimR dimer labelled at N103C (Alexa488/Cy5); type: binding; conditions: titration of SAIRGA (20-500 nM) or target DNA (500-8000 nM), GMPRGA at 500 nM
T1 construct: 6xHis (N, cleaved yes); made in house; host or cells: Escherichia coli BL21 (DE3)
Method: (§1) The cysteine substitutions of phAimR (phAimR^C6S/C74S/C99S/C136S/C223S/C267S/N103C or phAimR^C6S/C74S/ C99S/C136S/C223S/C267S/D174C) were generated with a standard PCR-based strategy. Proteins were prepared in the same way as the wild-type phAimR. Alexa Fluor 488 C5 maleimide (Alexa488, A10254, Thermo Fisher, Shanghai, China) and Cy5 maleimide (Cy5, PA15131, GE Healthcare, Shanghai, China) were used as fluorescence donor and acceptor, respectively. A desalting column (HiPrep 26/10, GE Healthcare, Shanghai, China) was used to exchange the protein buffer into the conjugation buffer containing 20 mM phosphate (pH 7.4) and 100 mM NaCl. The protein fraction was collected in premixed Alexa488 and Cy5 dyes. The conjugation of phAimR was performed with Alexa488 and Cy5 at a molar ratio of 1:4:4. Conjugation reaction was performed for 3 h at room temperature in the dark, and the mixture was then purified using a Source-Q column (GE Healthcare, Shanghai, China). The fractions of double-labeled protein that had absorption at 280 nm, 493 nm and 640 nm were collected for smFRET data collection.
(§2) The laser confocal fluorescence microscope MicroTime 200 (PicoQuant, Berlin, Germany) was used for single-molecule imaging, and a pulsed interleaved excitation (PIE) scheme was used with two SPCM-AQRH detectors (Excelitas, Waltham, MA, USA) for recording fluorescence time traces at two different wavelengths. Two picosecond-pulsed diode laser heads (LDH-P-C-485 and LDH-P-C-640; PicoQuant, Berlin, Germany) were driven by a PDL 828 Sepia II driver (PicoQuant) at a repetition rate of 40 MHz, which allowed interleaved excitations for Alexa488 and Cy5. Each laser was coupled to the inverted microscope IX 73 (Olympus, Beijing, China) through a single-mode fiber, and was reflected by a dichroic mirror through a water-immersion objective (UPLSAPO 60×, N.A. 1.20). The protein sample was loaded onto a hybridization chamber (Thermo Fisher) glued to a glass coverslip (Thermo Fisher, Shanghai, China). The laser confocal point was set to about 50 μm above the coverslip. The excitation power at the back of the objective was about 100 μW for the 485 nm laser and about 35 μW for the 640 nm laser, as estimated with a power meter (PM20-FC; Thorlabs, Shanghai, China). Focused to a 100 μm pinhole, the fluorescence emission from the excited protein molecule was collected with the same objective. The donor and acceptor emissions were separated with a dichroic mirror (T635lpxr; Chroma, Xiamen, China). The donor emission was filtered with a 520/35 BP band pass, and the acceptor emission was filtered with a 690/70 BP band pass, before being focused onto the two SPCM-AQRH detectors.
(§3) The fluorescence outputs were recorded with a TimeHarp 260 PCI board (PicoQuant, Berlin, Germany) built into a PC workstation, and the data were stored in the time-tagged time-resolved module (PicoQuant, Berlin, Germany). The photon counts including fDex/Dem, fDex/Aem and fAex/Aem were obtained by binning the photons in 1 ms bins using SymPhoTime64 software (PicoQuant, Berlin, Germany). […] With all three fluorescence time traces recorded, the signals from the donor-only or acceptor-only protein molecules were filtered out, so as to ensure that an fDex/Aem photon only arises from a doubly labeled protein. […]

[3] = molecular target: T2, phAimR dimer (D174C-labelled) (Bacillus phage phi3T, UniProt P0DOE3, C136S/C223S/C267S/C6S/C74S/C99S/D174C); test: smFRET titration of phAimR dimer labelled at D174C (Alexa488/Cy5); type: binding; conditions: titration of SAIRGA or target DNA, GMPRGA at 500 nM
T2 construct: 6xHis (N, cleaved yes); made in house; host or cells: Escherichia coli BL21 (DE3)
Method: as §1, §2, §3

[4] = system: phAimR–target DNA interaction; test: Electrophoretic mobility shift assay, phAimR binding to target DNA; type: biochemical, Bacillus phage phi3T; conditions: 5 nM FAM-labelled 41 bp DNA; 0, 0.037, 0.11, 0.33 and 1 M (so in the source) phAimR, peptide 10-fold molar excess; 25 mM Tris-HCl pH 8.0, 150 mM NaCl, room temperature, 10 min; three biological replicates
Method: DNA probes were annealed using boiling water with FAM-labeled primers to generate the 41 bp DNA fragment (70262-70302, 5′ […] 3′) from phi3T bacteriophage genome. The labeled probes (5 nM) were incubated with 0, 0.037, 0.11, 0.33 and 1 M phAimR proteins or peptide-bound phAimR complex (peptide is 10-fold molar excess of phAimR) in a buffer containing 25 mM Tris-HCl (pH 8.0), 5 mM MgCl2, 5 mM DTT, 0.1 mg·mL^−1 BSA, 10% glycerol and 150 mM NaCl at room temperature for 10 min. The reactions were resolved on 6% native acrylamide gels (37.5:1 acrylamide:bis-acrylamide) in 0.5× TBE buffer at 100 V for 75 min. Images of the gels were obtained using FLA5100 (Typhoon, Shanghai, China).
Figure S 6. EMSA characterize the interaction between phAimR and target DNA. The phi 3T-derived SAIRGA peptide abolishes the DNA binding ability of phAimR, whereas the SP beta-derived GMPRGA peptide has no effects. Each EMSA experiments was conducted for three biological replicates.
F ig u re S 7. Comparison of cross-correlation function GAD(τ) between apo phAimR ( b l a c k line), in complex with 500 nM SAIRGA peptide (blue line) and 8000 nM target DNA (red line). FCS data was collected forthe N103C dyes -labeled phAimR dimer. […]

[5] = molecular target: T3, phAimR D174C-labeled (Bacillus phage phi3T, UniProt P0DOE3 1-378, C6S;C74S;C99S;C136S;C223S;C267S;D174C); test: smFRET titration; no peptide; EMSA: 25 mM Tris-HCl pH 8.0, 150 mM NaCl, 5 mM MgCl2, 5 mM DTT, 0.1 mg/mL BSA, 10% glycerol, room temperature 10 min, 5 nM probe, protein 0-1 (printed 'M', probably uM); smFRET titration buffer not in the material; conditions: protein: recombinant; tags: N-terminal 6xHis removed with drICE protease; Alexa488/Cy5 at C174; chain copies: 2; blunt
T3 sequence: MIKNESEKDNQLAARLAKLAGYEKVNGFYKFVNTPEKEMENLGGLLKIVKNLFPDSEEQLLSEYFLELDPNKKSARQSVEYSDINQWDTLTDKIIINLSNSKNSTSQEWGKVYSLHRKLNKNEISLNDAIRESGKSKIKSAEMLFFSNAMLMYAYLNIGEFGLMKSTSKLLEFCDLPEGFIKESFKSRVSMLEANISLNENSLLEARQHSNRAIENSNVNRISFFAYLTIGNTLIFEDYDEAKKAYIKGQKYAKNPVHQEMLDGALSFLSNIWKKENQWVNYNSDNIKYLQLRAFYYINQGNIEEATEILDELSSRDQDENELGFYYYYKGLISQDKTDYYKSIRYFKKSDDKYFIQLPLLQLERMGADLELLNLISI

[6] = molecular target: T4, phAimR N103C-labeled (Bacillus phage phi3T, UniProt P0DOE3 1-378, C6S;C74S;C99S;C136S;C223S;C267S;N103C); test: as above; conditions: protein: recombinant; tags: N-terminal 6xHis removed with drICE protease; Alexa488/Cy5 maleimide at C103; chain copies: 2; blunt
T4 sequence: T3 sequence with N103C, C174D

[7] = molecular target: T5, phAimR wild type (Bacillus phage phi3T, UniProt P0DOE3 1-378); test: EMSA; no peptide; 5 mM MgCl2; EMSA: 25 mM Tris-HCl pH 8.0, 150 mM NaCl, 5 mM MgCl2, 5 mM DTT, 0.1 mg/mL BSA, 10% glycerol, room temperature 10 min, 5 nM probe, protein 0-1 (printed 'M', probably uM); smFRET titration buffer not in the material; conditions: protein: recombinant; tags: N-terminal 6xHis removed with drICE protease; chain copies: 2; label: FAM; blunt
T5 sequence: T3 sequence with S6C, S74C, S99C, S136C, C174D, S223C, S267C

[8] = molecular target: the molecule itself; test: SEC; Superdex 200 Increase 10/300 GL; 8.2 uM protein without peptide; 25 mM Tris-HCl pH 8.0, 300 mM NaCl
[9] = molecular target: the molecule itself; test: SEC-MALS; static light scattering; 1.6 mg/mL protein without peptide; Superdex 200 Increase 10/300 with HELEOS multi-angle light scattering; 25 mM Tris-HCl pH 8.0, 300 mM NaCl

T1 sequence (P0DOE3 whole entry C6S/C74S/C99S/N103C/C136S/C223S/C267S): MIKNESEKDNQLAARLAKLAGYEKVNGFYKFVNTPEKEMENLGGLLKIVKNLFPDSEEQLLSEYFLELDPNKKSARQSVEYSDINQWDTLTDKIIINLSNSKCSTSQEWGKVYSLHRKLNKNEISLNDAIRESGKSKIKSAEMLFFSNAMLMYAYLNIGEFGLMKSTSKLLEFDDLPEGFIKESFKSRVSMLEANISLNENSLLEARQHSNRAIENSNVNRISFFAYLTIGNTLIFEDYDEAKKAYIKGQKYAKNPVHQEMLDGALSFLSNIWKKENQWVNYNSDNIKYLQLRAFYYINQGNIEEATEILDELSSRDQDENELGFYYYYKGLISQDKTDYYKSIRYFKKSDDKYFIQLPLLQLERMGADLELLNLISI

Question: With “GMPRGA [SPbeta arbitrium peptide (GMPRGA), negative control, reference compound]” as the molecule, how does the Kd [1] read?
Answer: 4.6 nM

Question: What about the “effect on smFRET profile / conformational state enriched” value [2] of the same molecule?
Answer: no perturbation on the smFRET profile of phAimR

Question: And the “effect on smFRET profile / conformational state enriched” value [3]?
Answer: no perturbation on the smFRET profile of phAimR

Question: What about the “effect on DNA binding ability of phAimR (EMSA)” value [4] of the same molecule?
Answer: no effects

B1: phi3T target DNA (smFRET titration) (dsDNA)
DNA 1: GAAATGTCCAGAAATTCAAAAATCAAAAAATAAGAACATGG
DNA 2: CCATGTTCTTATTTTTTGATTTTTGAATTTCTGGACATTTC
Question: Which results are given for B1?
Answer: Kd [5]: 1260 ± 218 nM; Kd [6]: 1650 ± 44.6 nM

B2: phi3T target DNA 41 bp, FAM probe (dsDNA)
DNA 1: B1 DNA 1
DNA 2: B1 DNA 2
Question: Does B2 bind [7]?
Answer: binds

B3: AimR from Phi3T phage (phAimR), wild type (natural protein, Bacillus phage phi3T)
chain: T3 sequence with S6C, S74C, S99C, S136C, C174D, S223C, S267C
notes: AimR transcription factor of Bacillus phage phi3T, codon-optimized cDNA (GenBank KY030782.1) in pET15b; theoretical mass printed as 44.3 kDa; 6x His tag removed with drICE protease; Dimer by SLS, AUC and SAXS; also called phi3T AimR; wild-type phAimR; source: E. coli BL21 (DE3), purified (Ni-NTA, anion exchange, size-exclusion chromatography); not shown: His6, N-terminal, cleaved
Question: Which results are given for B3?
Answer: stoichiometry N [8]: 2; stoichiometry N [9]: ~2
